Assay results as given in the Human Domainome abundance scans (Beltran et al. 2025).
± gives the uncertainty stated by the source.

B1: POU domain, class 6, transcription factor 2, residues 609 to 663; numbered along this chain, P78424 (parent)
chain: KRRTSFTPQALEILNAHFEKNTHPSGQEMTEIAEKLNYDREVVRVWFCNKRQALK

Variants of: B1
Experiment: abundance fitness (aPCA) (normalised: wild type 0, dead -1); higher = more abundant; growth selection in yeast, the domain comes from the species named
Settings: Homo sapiens
For KRRTSFTPQALEILNAHFEKNTHPSGQEMTEIAEKLNMDREVVRVWFCNKRQALK, the abundance fitness was 0.022 ± 0.062. For KRRTSFTPQALEILNAHFEKNTHPSGQEMTEIAEKLNNDREVVRVWFCNKRQALK, the abundance fitness was -0.405 ± 0.17. With KRRTSFTPQALEILNAHFEKNTHPSGQEMTEIAEKLNFDREVVRVWFCNKRQALK the abundance fitness was -0.145 ± 0.098. In the case of KRRTSFTPQALEILNAHFEKNTHPSGQEMTEIAEKLNGDREVVRVWFCNKRQALK, the abundance fitness is reported as -0.2 ± 0.043. KRRTSFTPQALEILNAHFEKNTHPSGQEMTEIAEKLNADREVVRVWFCNKRQALK gave an abundance fitness of 0.02 ± 0.046. KRRTSFTPQALEILNAHFEKNTHPSGQEMTEIAEKLNDDREVVRVWFCNKRQALK gave an abundance fitness of -0.152 ± 0.066. With KRRTSFTPQALEILNAHFEKNTHPSGQEMTEIAEKLNHDREVVRVWFCNKRQALK the abundance fitness was -0.176 ± 0.1. Work on KRRTSFTPQALEILNAHFEKNTHPSGQEMTEIAEKLNKDREVVRVWFCNKRQALK yielded an abundance fitness of -0.133 ± 0.095. For KRRTSFTPQALEILNAHFEKNTHPSGQEMTEIAEKLNPDREVVRVWFCNKRQALK, the abundance fitness was -1.08 ± 0.14. With KRRTSFTPQALEILNAHFEKNTHPSGQEMTEIAEKLNQDREVVRVWFCNKRQALK the abundance fitness was 0.024 ± 0.073. For KRRTSFTPQALEILNAHFEKNTHPSGQEMTEIAEKLNLDREVVRVWFCNKRQALK, the abundance fitness was 0.006 ± 0.059. For KRRTSFTPQALEILNAHFEKNTHPSGQEMTEIAEKLNIDREVVRVWFCNKRQALK, the abundance fitness was 0.027 ± 0.13. With KRRTSFTPQALEILNAHFEKNTHPSGQEMTEIAEKLNRDREVVRVWFCNKRQALK the abundance fitness was -0.024 ± 0.05. KRRTSFTPQALEILNAHFEKNTHPSGQEMTEIAEKLNCDREVVRVWFCNKRQALK showed an abundance fitness of 0.023 ± 0.074. For KRRTSFTPQALEILNAHFEKNTHPSGQEMTRIAEKLNYDREVVRVWFCNKRQALK, the abundance fitness was -0.028 ± 0.15. With KRRTSFTPQALEILNAHFEKNTHPSGQEMTPIAEKLNYDREVVRVWFCNKRQALK the abundance fitness was -0.516 ± 0.3. Variant KRRTSFTPQALEILNAHFEKNTHPSGQEMTNIAEKLNYDREVVRVWFCNKRQALK has an abundance fitness of -0.258 ± 0.3. Variant KRRTSFTPQALEILNAHFEKNTHPSGQEMTYIAEKLNYDREVVRVWFCNKRQALK has an abundance fitness of -0.499 ± 0.26. With KRRTSFTPQALEILNAHFEKNTHPSGQEMTTIAEKLNYDREVVRVWFCNKRQALK the abundance fitness was -0.112 ± 0.33. For KRRTSFTPQALEILNAHFEKNTHPSGQEMTVIAEKLNYDREVVRVWFCNKRQALK, the abundance fitness was -0.174 ± 0.12. For KRRTSFTPQALEILNAHFEKNTHPSGQEMTWIAEKLNYDREVVRVWFCNKRQALK, the abundance fitness was -0.131 ± 0.18. KRRTSFTPQALEILNAHFEKNTHPSGQEMTEIWEKLNYDREVVRVWFCNKRQALK gave an abundance fitness of -1.01 ± 0.34. For KRRTSFTPQALEILNAHFEKNTHPSGQEMTEIGEKLNYDREVVRVWFCNKRQALK, the abundance fitness was -0.248 ± 0.12. In the case of KRRTSFTPQALEILNAHFEKNTHPSGQEMTEIQEKLNYDREVVRVWFCNKRQALK, the abundance fitness is reported as -0.412 ± 0.28. KRRTSFTPQALEILNAHFEKNTHPSGQEMTEIVEKLNYDREVVRVWFCNKRQALK showed an abundance fitness of -0.259 ± 0.12. KRRTSFTPQALEILNAHFEKNTHPSGQEMTEICEKLNYDREVVRVWFCNKRQALK gave an abundance fitness of -0.199 ± 0.21. KRRTSFTPQALEILNAHFEKNTHPSGQEMTEIREKLNYDREVVRVWFCNKRQALK gave an abundance fitness of -0.809 ± 0.27. Work on KRRTSFTPQALEILNAHFEKNTHPSGQEMTEISEKLNYDREVVRVWFCNKRQALK yielded an abundance fitness of -0.118 ± 0.46. Work on KRRTSFTPQALEILNAHFEKNTHPSGQEMTEIHEKLNYDREVVRVWFCNKRQALK yielded an abundance fitness of -0.881 ± 0.34. Work on KRRTSFTPQALEILNAHFEKNTHPSGQEMTEIDEKLNYDREVVRVWFCNKRQALK yielded an abundance fitness of -0.669 ± 0.28. In the case of KRRTSFTPQALEILNAHFEKNTHPSGQEMTEIMEKLNYDREVVRVWFCNKRQALK, the abundance fitness is reported as -0.477 ± 0.27. With KRRTSFTPQALEILNAHFEKNTHPSGQEMTEIAESLNYDREVVRVWFCNKRQALK the abundance fitness was -0.047 ± 0.091. KRRTSFTPQALEILNAHFEKNTHPSGQEMTEIAEMLNYDREVVRVWFCNKRQALK gave an abundance fitness of -0.062 ± 0.11. In the case of KRRTSFTPQALEILNAHFEKNTHPSGQEMTEIAEDLNYDREVVRVWFCNKRQALK, the abundance fitness is reported as -0.139 ± 0.12. For KRRTSFTPQALEILNAHFEKNTHPSGQEMTEIAETLNYDREVVRVWFCNKRQALK, the abundance fitness was 0.071 ± 0.17. In the case of KRRTSFTPQALEILNAHFEKNTHPSGQEMTEIAECLNYDREVVRVWFCNKRQALK, the abundance fitness is reported as -0.186 ± 0.12. In the case of KRRTSFTPQALEILNAHFEKNTHPSGQEMTEIAEYLNYDREVVRVWFCNKRQALK, the abundance fitness is reported as -0.088 ± 0.21. Variant KRRTSFTPQALEILNAHFEKNTHPSGQEMTEIAEPLNYDREVVRVWFCNKRQALK has an abundance fitness of -0.883 ± 0.26. Work on KRRTSFTPQALEILNAHFEKNTHPSGQEMTEIAELLNYDREVVRVWFCNKRQALK yielded an abundance fitness of -0.01 ± 0.1. In the case of KRRTSFTPQALEILNAHFEKNTHPSGQEMTEIAEGLNYDREVVRVWFCNKRQALK, the abundance fitness is reported as -0.087 ± 0.088. In the case of KRRTSFTPQALEILNAHFEKNTHPSGQEMTEIAEQLNYDREVVRVWFCNKRQALK, the abundance fitness is reported as -0.095 ± 0.22. With KRRTSFTPQALEILNAHFEKNTHPSGQEMTEIAEILNYDREVVRVWFCNKRQALK the abundance fitness was -0.167 ± 0.25. Variant KRRTSFTPQALEILNAHFEKNTHPSGQEMTEIAEVLNYDREVVRVWFCNKRQALK has an abundance fitness of -0.112 ± 0.1. Work on KRRTSFTPQALEILNAHFEKNTHPSGQEMTEIAERLNYDREVVRVWFCNKRQALK yielded an abundance fitness of -0.053 ± 0.093. Work on KRRTSFTPQALEILNAHFEKNTHPSGQEMTEIAEELNYDREVVRVWFCNKRQALK yielded an abundance fitness of -0.154 ± 0.18. In the case of KRRTSFTPQALEILNAHFEKNTHPSGQEMTEIAEHLNYDREVVRVWFCNKRQALK, the abundance fitness is reported as -0.221 ± 0.44. Work on KRRTSFTPQALEILNAHFEKNTHPSGQEMTEIAEFLNYDREVVRVWFCNKRQALK yielded an abundance fitness of -0.194 ± 0.14. Variant KRRTSFTPQALEILNAHFEKNTHPSGQEMTEIAENLNYDREVVRVWFCNKRQALK has an abundance fitness of -0.255 ± 0.21.
